According to patent publication US20220298257A1 (ELPIS BIOPHARMACEUTICALS, published 2022):

Assays:
[1] = molecular target: T1, full-length human CD22 fused with flag and Myc tags at the C-terminus, on HEK293 or K562 cells (human, UniProt P20273 20-847); assay: FACS, antibody fragment titrated on CD22-expressing cells, anti-His Alexa 488
T1 construct: whole, on cells; also called CD22/K562; CD22/HEK293; not shown: C-terminal flag and Myc tags of the pCMV6-Entry vector
T1 sequence (looked up): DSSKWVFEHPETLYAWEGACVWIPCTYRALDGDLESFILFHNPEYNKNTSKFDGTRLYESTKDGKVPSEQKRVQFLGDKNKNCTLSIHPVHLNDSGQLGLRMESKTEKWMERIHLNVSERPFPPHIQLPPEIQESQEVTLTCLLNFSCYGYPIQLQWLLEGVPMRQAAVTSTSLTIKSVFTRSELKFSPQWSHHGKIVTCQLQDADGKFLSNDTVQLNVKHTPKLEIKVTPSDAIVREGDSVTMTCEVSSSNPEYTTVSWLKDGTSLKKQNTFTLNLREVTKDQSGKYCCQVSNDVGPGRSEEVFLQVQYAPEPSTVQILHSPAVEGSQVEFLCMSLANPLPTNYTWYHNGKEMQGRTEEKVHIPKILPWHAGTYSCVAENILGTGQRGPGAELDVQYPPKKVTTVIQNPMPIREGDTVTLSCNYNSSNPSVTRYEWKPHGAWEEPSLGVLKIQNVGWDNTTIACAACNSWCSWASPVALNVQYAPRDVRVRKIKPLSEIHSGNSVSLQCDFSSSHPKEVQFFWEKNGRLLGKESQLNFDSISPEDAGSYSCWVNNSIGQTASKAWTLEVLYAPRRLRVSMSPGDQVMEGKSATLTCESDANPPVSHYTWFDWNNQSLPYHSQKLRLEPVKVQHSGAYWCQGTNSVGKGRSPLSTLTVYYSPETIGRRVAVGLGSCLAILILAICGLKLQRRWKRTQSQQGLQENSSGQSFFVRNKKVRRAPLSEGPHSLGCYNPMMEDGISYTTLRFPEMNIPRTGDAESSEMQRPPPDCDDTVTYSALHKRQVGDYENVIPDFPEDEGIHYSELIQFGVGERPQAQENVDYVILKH

[2] = molecular target: T2, CD123 on the surface of CHO-K1 cells (UniProt P26951 19-378); assay: FACS on CHO-K1 cells expressing CD123, anti-hFc Alexa 488
T2 construct: whole, on cells; Negative control cells that express CD123 but not CD22; also called CHOK1-CD123; cell surface CD123
T2 sequence (P26951 19-378 limits assumed): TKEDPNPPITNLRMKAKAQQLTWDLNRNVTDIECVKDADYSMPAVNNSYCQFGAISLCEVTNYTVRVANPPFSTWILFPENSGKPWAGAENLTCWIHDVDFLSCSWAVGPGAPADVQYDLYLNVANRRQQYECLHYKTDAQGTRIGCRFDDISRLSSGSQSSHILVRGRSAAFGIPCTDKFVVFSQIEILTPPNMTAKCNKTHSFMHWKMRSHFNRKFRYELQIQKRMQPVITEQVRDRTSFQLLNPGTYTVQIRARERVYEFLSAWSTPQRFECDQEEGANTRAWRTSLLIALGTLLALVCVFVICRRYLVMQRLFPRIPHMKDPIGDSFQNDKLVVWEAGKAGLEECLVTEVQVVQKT

[3] = molecular target: T1, full-length human CD22 fused with flag …; assay: FACS on CD22-expressing cells (HEK293-CD22 by the table's head), anti-hFc Alexa 488
[4] = molecular target: T1, full-length human CD22 fused with flag …; assay: cell-based or functional assay
[5] = molecular target: T1, full-length human CD22 fused with flag …; assay: cell-based or functional assay; remark: listed apart in the source
[6] = molecular target: T1, full-length human CD22 fused with flag …; assay: ELISA, IgG format; antigen format not described
[7] = molecular target: T1, full-length human CD22 fused with flag …; assay: FACS on CD22 K562 cells, competitor 0.77 nM BL22
[8] = molecular target: T1, full-length human CD22 fused with flag …; assay: FACS on CD22 K562 cells, scFv alone (BL22 binning experiment)
[9] = molecular target: T3, human CD22-Fc fusion protein (human, UniProt P20273 20-687, limits assumed); assay: SPR Biacore T200; CD22-Fc captured on Protein G chip, scFv as analyte;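 also: run in 1×HBST buffer, with the response of reference flow cell 1 subtracted from the CD22 capture cell and kinetics fitted in Biacore T200 evaluation software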
T3 construct: also called recombinant CD22-Fc fusion protein; not shown: Fc part
T3 sequence (looked up): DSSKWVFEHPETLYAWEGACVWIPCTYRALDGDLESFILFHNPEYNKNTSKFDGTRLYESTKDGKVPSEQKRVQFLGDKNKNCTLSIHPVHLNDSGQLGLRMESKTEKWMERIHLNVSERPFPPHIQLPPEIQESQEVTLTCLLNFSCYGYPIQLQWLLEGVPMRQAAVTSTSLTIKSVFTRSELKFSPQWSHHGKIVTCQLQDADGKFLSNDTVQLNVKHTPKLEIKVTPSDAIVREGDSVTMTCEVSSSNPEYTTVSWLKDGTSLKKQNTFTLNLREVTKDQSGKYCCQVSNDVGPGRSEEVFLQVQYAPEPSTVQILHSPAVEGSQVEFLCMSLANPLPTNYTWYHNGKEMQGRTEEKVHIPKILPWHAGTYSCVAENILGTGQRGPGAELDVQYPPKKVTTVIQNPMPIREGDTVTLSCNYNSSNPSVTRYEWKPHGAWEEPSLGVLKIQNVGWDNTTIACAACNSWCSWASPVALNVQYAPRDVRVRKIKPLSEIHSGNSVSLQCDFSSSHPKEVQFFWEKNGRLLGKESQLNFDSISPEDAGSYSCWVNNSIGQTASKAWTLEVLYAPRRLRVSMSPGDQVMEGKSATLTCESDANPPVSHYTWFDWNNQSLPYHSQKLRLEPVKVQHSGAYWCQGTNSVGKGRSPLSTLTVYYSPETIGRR

[10] = molecular target: T1, full-length human CD22 fused with flag …; assay: FACS on CD22 K562 cells, competitor 5.13 nM M971
[11] = molecular target: T1, full-length human CD22 fused with flag …; assay: FACS, scFv titrated on CD22-expressing cells, anti-His Alexa 488
[12] = molecular target: T1, full-length human CD22 fused with flag …; assay: FACS on CD22 K562 cells, competitor 1.77 nM M971
[13] = molecular target: T1, full-length human CD22 fused with flag …; assay: FACS on CD22 K562 cells, scFv alone (M971 binning experiment)
[14] = molecular target: T1, full-length human CD22 fused with flag …; assay: FACS on CD22 K562 cells, competitor 0.175 nM BL22

B1: EP160-F10 (a single domain antibody) (VHH)
VHH: EVQLVESGGGVVQPGRSLRLSCVASGFTFRNYGMQWVRQTPDKGLEWVAVTAHDGTVQYYVDSVKGRFTISRDNSKDTLYLQMNSLRVADTAVYYCAKEATPRAADHFDYWGQGTLGTVSS
notes: Human VH-only single domain antibody from a human library (not a camelid VHH); not shown: C-terminal flag and 6xHIS tag
- EC50 [1]: 9 nM

B2: EP160-D02 (IgG) (antibody, V domains shown)
VH: QVQLVQSGAEVKKPGASVKVSCKASGYTFTSYGISWVRQAPGQGLEWMGWISAYNGNTNYAQKLQGRVTMTTDTSTSTAYMELRSLRSDDTAVYYCARDPLEPLESDYWGQGTLVTVSS
VL: EIVMTQSPATLSVSPGEGVTLSCRASQSVSSNLAWYQQRPGQAPRLLIYGASIKATDVPDRFSGGGSGTDFSLSITNLQSEDFAVYYCQQYHTWPPVTFGGGTKVEIK
notes: also called EP160-D2 (IgG)
- binding result [2]: no binding
- EC50 [3]: 0.101 nM
- EC50 in ADCC assay (Promega ADCC Bioreporter, CD22/HEK293 target cells) [4]: 1.95 nM
- T½ (Hour) of internalization, CD22/HEK293 cells, pHrodo secondary [5]: 5.06 Hour
- EC50 [6]: 0.039 nM

B3: EP160-D02 scFv (scFv)
scFv: QVQLVQSGAEVKKPGASVKVSCKASGYTFTSYGISWVRQAPGQGLEWMGWISAYNGNTNYAQKLQGRVTMTTDTSTSTAYMELRSLRSDDTAVYYCARDPLEPLESDYWGQGTLVTVSSGGGGSGGGGSGGGGSEIVMTQSPATLSVSPGEGVTLSCRASQSVSSNLAWYQQRPGQAPRLLIYGASIKATDVPDRFSGGGSGTDFSLSITNLQSEDFAVYYCQQYHTWPPVTFGGGTKVEIK
notes: VH-VL orientation; made in E. coli, His-tag purified; also called EP160-D2; not shown: C-terminal flag and 6xHIS tag
- IC50 [7]: 0.0898 nM
- IC50 [8]: 0.0822 nM
- Kd [9]: 0.0194 nM
- koff [9]: 0.000107 s⁻¹
- kon [9]: 5.51e+06 M⁻¹ s⁻¹
- EC50 [10]: 0.144 nM
- EC50 [11]: 0.24 nM
- EC50 [12]: 0.0946 nM
- EC50 [13]: 0.125 nM
- IC50 [14]: 0.0811 nM
